Test [1] addresses T1, PTx-S1-220 Y161A (Bordetella pertussis strain Tohama I, UniProt P04977 36-255, Y161A).
T1 sequence: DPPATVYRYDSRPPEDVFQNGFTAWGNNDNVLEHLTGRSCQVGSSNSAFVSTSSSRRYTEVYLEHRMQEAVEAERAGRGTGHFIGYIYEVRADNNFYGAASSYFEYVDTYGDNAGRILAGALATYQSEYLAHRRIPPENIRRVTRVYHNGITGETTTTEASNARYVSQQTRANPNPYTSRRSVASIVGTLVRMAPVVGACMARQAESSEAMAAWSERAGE
The test is described as follows: SPR, mAb 1B7 immobilised ~1000 RU. (In general: Surface plasmon resonance follows binding to a sensor surface in real time, without labels.)

In test [2] the target is T2, PTx-S1-220 R39A (Bordetella pertussis strain Tohama I, UniProt P04977 36-255, R39A).
T2 sequence: T1 sequence with R38A, A160Y
Put plainly: SPR, mAb 1B7 immobilised ~1000 RU.

The target of test [3] is T3, PTx-S1-220 R146A (Bordetella pertussis strain Tohama I, UniProt P04977 36-255, R146A).
T3 sequence: T1 sequence with R145A, A160Y
The test is described as follows: SPR, mAb 1B7 immobilised ~1000 RU.

Test [4] has as its target pertussis toxin B-oligomer (Bordetella pertussis), P04978. The test is described as follows: ELISA repeated with mAb 1B7. The settings on record: remark: other sources report otherwise. On the technique in general: ELISA stands for enzyme-linked immunosorbent assay.
Test [5] deals with T4, PTx-S1-220 Y8A (Bordetella pertussis strain Tohama I, UniProt P04977 36-255, Y8A).
T4 sequence: T1 sequence with Y7A, A160Y
Put plainly: Western blot (text: 1B7 was unable to bind Y8A).

Test [6] deals with PTx-S1-220, truncated recombinant S1 subunit (residues 1-220) (Bordetella pertussis strain Tohama I), P04977. The test is described as follows: SPR; value for truncated PTx-S1-220 differs from Table 1. Particulars: remark: other sources report otherwise.

Numbering of substitutions follows the chain as printed.

B1: monoclonal antibody 1B7 (antibody)
chain: DIQMTQSPALMSASPGEKVTMTCSASSSVSFMYWYQQKPRSSPKPWIYLTSNLPSGVPARFSGSGSGTSYSLTISSMEAEDAATYYCQQWSSHPPTFGSGTKLEIKRGGGGSGGGGSGGGGSGGGGSEVQLQQSGSELVRPGASVKLSCKASGYKFTSYWMHWVKQRPGQGLEWIGNIFPGSGSTNYDEKFNSKATLTVDTSSNTAYMQLSSLTSEDSAVYYCTRWLSGAYFDYWGQGTTLTVSSASGA
notes: also called mAb 1B7; 1B7 mAb
Consider B1, for which the koff (commonly the first-order rate constant of dissociation) is 0.0013 s⁻¹ in test [1], 0.003 s⁻¹ in test [2], 0.0015 s⁻¹ in test [3] and 0.0014 s⁻¹ in test [6]. The molecule also came in with an EC50-PTx (%) in test [4] of 30%. Besides, the binding result in test [5] is given as “no binding”.

The values are drawn from patent publication US20120244144A1 (University of Texas, published 2012).
